US8765431B2, “Method for enzymatic production of decarboxylated polyketides and fatty acids” (The Regents of the University of Michigan, priority 2009, dated 2014)
Substitutions are numbered along the chain they refer to. In names and notes the source's numbering stands.

B1: H266R: CurM TE control mutation in the catalytic triad (protein)
chain: MEEKFLEFGGNQICLCSWGSPEHPVVLCIHGILEQGLAWQEVALPLAAQGYRVVAPDLFGHGRSSHLEMVTSYSSLTFLAQIDRVIQELPDQPLLLVGHSMGAMLATAIASVRPKKIKELILVELPLPAEESKKESAVNQLTTCLDYLSSTPQHPIFPDVATAASRLRQAIPSLSEEFSYILAQRITQPNQGGVRWSWDAIIRTRSILGLNNLPGGRSQYLEMLKSIQVPTTLVYGDSSKLNRPEDLQQQKMTMTQAKRVFLSGGRNLHIDAAAALASLILTS
B2: N267A: CurM TE mutant of conserved Asn next to the catalytic His (protein)
chain: B1 chain with R266H, N267A
B3: N211A: CurM TE mutant of conserved Asn interacting with R205 (protein)
chain: B1 chain with N211A, R266H
B4: R205Q: CurM TE point mutant R205Q (protein)
chain: B1 chain with R205Q, R266H
B5: R205E: CurM TE point mutant R205E (protein)
chain: B1 chain with R205E, R266H
B6: R205A: CurM TE point mutant R205A (protein)
chain: B1 chain with R205A, R266H

Key:
Format in all cases: biochemical, Lyngbya majuscula
CurM TE [1] = assay: Steady-state kinetic analysis of TE hydrolysis using CoA-linked substrates; settings: steady-state kinetics
Experimental: (3S)-1-ACP and (3R)-1-ACP were prepared as the TE substrates to test its stereoselectivity for the β-hydroxyl group. The reactions were analyzed by reverse-phase HPLC, and the separated ACP fractions were examined by Fourier transform ion cyclotron resonance mass spectrometry (FTICR-MS) and infrared multiphoton dissociation (IRMPD) (16) techniques. In addition, the chain-release products were detected by LC-MS and confirmed by co-injection with authentic standards. […] However, TE-catalyzed hydrolysis of (3S)-1-ACP was about 5-fold faster than with (3R)-1-ACP (FIG. 5A). […] However, based on bioinformatic analysis of PKS ketoreductase (KR) sequences (17), the CurM KR was predicted to reduce the β-keto to a (R)-β-hydroxyl group in the full-length chain intermediate.
HPLC-based analyses of the TE hydrolysis were performed using XBridge C18 column (4.6×250 mm, 5 μm, Waters) on the Gold HPLC system equipped with an autosampler and controlled by 32 Karat software (Beckman Coulter). Samples were eluted with a linear gradient from 10% to 90% of MeOH/H2O (10 mM CH3CO2NH4). For steady state kinetic studies. TE hydrolysis was examined in 40 μl 50 mM Tris-HCl buffer (pH 7.0) with 100 μM, 200 μM, 500 μM, 1000 μM and 2000 μM (3R)-1-CoA or (3S)-1-CoA. […] The TE hydrolysis reaction was measured by consumption of CoA substrates. […]

CurM ST = assay: ST sulfonation of free acid and ACP-linked substrates (LC-MS, HPLC, FTICR-MS); settings: in the presence of ST and PAPS
Experimental: Based on the known mechanism of ST enzyme function, CurM ST was predicted to bind to PAPS, and transfer a sulfonate moiety to the β-hydroxyl group of the intermediate tethered to or released from CurM ACP (FIG. 1B). First, the ST substrate was identified by testing the sulfonation of 1 and 1-ACP. The sulfonation of 1 was analyzed by LC-MS, and that of 1-ACP was examined by HPLC and FTICR-MS. […] Likewise, the stereoselectivity of ST for the β-hydroxyl group was determined by comparing the sulfonation efficiency of (3S)-1-ACP and (3R)-1-ACP. Under the same reaction condition, ST sulfonation with (3R)-1-ACP was about 2.5-fold faster than with (3S)-1-ACP (FIG. 6). Thus, CurM ST stereoselectivity is consistent with the predicted formation of a (R)-β-hydroxyl group by CurM KR.
The ST and TE assays were performed using R)-1-ACP and (3S)-1-ACP substrates. Typically, for the ST reactions, about 300 μM ACP-linked substrate was added with 2 μM ST and 2 mM PAPS in 50 mM Tris-HCl buffer (pH 7.0). For the TE reactions, about 300 μM ACP-linked substrate was added with 2 μM TE in 50 mM Tris-HCl buffer (pH 7.0). All the reactions were incubated at room temperature, quenched by addition of 10% formic acid, and analyzed by reverse-phase HPLC using Jupiter C4 column. The ACP fractions were collected, lyophilized and analyzed by FTICR-MS and IRMPD. […]

CurM ST and TE = assay: Coupled ST-TE one-pot reaction (HPLC, LC-MS); settings: from model substrate (3R)-1-ACP
Experimental: With the order of the ST and TE reactions established for the acyl-ACP intermediate, the next investigation was to couple the two reactions in one pot. […] Under the same reaction conditions, it was discovered that the CurM TE catalyzed hydrolysis reaction with sulfonated product (3R)-2-ACP was about 800-fold faster than with (3R)-1-ACP. Moreover, TE catalyzed hydrolysis of (3R)-2-ACP was about 120-fold faster than (3S)-2-ACP (FIG. 7).
(§1) Next, experiments were performed to assess whether the proposed sulfonated intermediate (3R)-2 (FIG. 3A) is released following hydrolysis of (3R)-2-ACP, or whether formation of 3 (FIG. 3B) occurs directly by a coordinated decarboxylative elimination process. First, the ST-TE coupled reactions with (3R)-1-ACP were analyzed by LC-MS and a single product was confirmed to be (3R)-2 by co-injection with the corresponding authentic standard (FIG. 3A iii). Due to the expected volatility of 3, the contents of the coupled reaction were extracted with hexane and analyzed by GC-MS. A second product was thus detected and confirmed to be 3 by co-injection with the corresponding authentic standard (FIG. 3B iv). […]
(§2) The ST and TE assays were performed using R)-1-ACP and (3S)-1-ACP substrates. […] All the reactions were incubated at room temperature, quenched by addition of 10% formic acid, and analyzed by reverse-phase HPLC using Jupiter C4 column. […]

CurM TE [2] = assay: TE-catalyzed decarboxylative elimination to 3 (GC-MS); settings: in 1 hour; free authentic (synthetic) substrate
Experimental: as §1, with “First, the ST-TE coupled reactions with (3R)-1-ACP were analyzed by LC-MS and a single product was confirmed to be (3R)-2 by co-injection with the corresponding authentic standard (FIG. 3A iii).” left out
as §2, with “column. The ACP fractions were collected, lyophilized and analyzed by FTICR-MS and IRMPD.” for “column.”
The samples and authentic standard were analyzed by a 6890N gas chromatograph equipped with a 5973 mass selective quadrupole detector (Agilent). […] Total ion chromatograms were recorded using a mass range of 60-420 amu, and the selective ion chromatograms were recorded by monitoring the two to three most abundant masses plus the parent masses of target compounds.

[3] = system: ACP with the sulfated substrate; assay: TE point mutant activity assay (liberation of holo ACP, HPLC); settings: for Activity compared to wild type: 1 min; for % Activity: relative to wild type CurM TE and free hydrolysis without enzyme, quenched after 1 min
Experimental: The activity of these mutants was tested using the same assay described previously (28). A one-pot reaction was used where CurM ACP was loaded with a synthesized substrate mimic (FIG. 1B) using Svp, after which CurM ST sulfates the β-hydroxyl. Lastly, CurM TE was added and the reaction is quenched after 1 minute. The liberation of holo ACP was detected by a shift on the HPLC. The ratio of holo ACP to ACP with the sulfated substrate was measured. Mutant activity was compared to the activity of wild type CurM TE and free hydrolysis without enzyme in order to obtain percent activity for the mutants (Table 3).
TE activity was assayed using a modification of the protocol developed by Gu et. al. (28). To generate the sulfated substrate for the TE assay, 225 μM loaded ACP was incubated with 5 μM ST, 1.75 mM PAPS (Sigma), in 100 mM Tris pH 7.9 at room temperature for 10 min. Four μM TE was then added to the mixture and the reaction was quenched with 10% formic acid after 1 min. The samples were analyzed by reverse phase HPLC using a Jupiter C4 column (250×2.0 mm, 5 μm, 300 Å, Phenomenex) and a linear elution gradient from 30% to 90% CH3CN (0.1% CF3CO2H)/H2O (0.1% CF3CO2H) over 45 min.

Row | Molecule | Activity compared to wild type [3] | % Activity [3] | also measured
1 | CCCCCCCCCC(C[C@H](O)CC(=O)O)OC (mixture of isomers) [(3S)-1, (3S,5RS)-3-Hydroxy-5-methoxytetradecanoic acid] |  |  | Substrate preference of TE (CurM TE [1]): preferred substrate
2 | CCCCCCCCCC(CC(O)CC(=O)O)OC (stereo not shown) [compound 1] |  |  | Substrate conversion by ST (CurM ST): No substrate conversion
3 | CCCCCCCCCC(C[C@H](CC(=O)O)OS(=O)(=O)O)OC (mixture of isomers) [(3R)-2, (3R,5RS)-3-Sulfonatooxy-5-methoxytetradecanoic acid] |  |  | Level of (3R)-2 as a product of the TE reaction (CurM ST and TE): greater than 50%; Conversion to 3 by TE (CurM TE [2]): about 2 % conversion
4 | B1 | 1 % of WT | 1.4 ± 0.2% | 
5 | B2 | catalytic activity, but at a reduced rate | 38.4 ± 3.1% | 
6 | B3 | catalytic activity, but at a reduced rate | 54.7 ± 1.8% | 
7 | B4 |  | 1.8 ± 0.3% | 
8 | B5 |  | 2.3 ± 2.1% | 
9 | B6 |  | 6.1 ± 3.1% | 
